Where two headings read alike, the source gives them in different places. Starred links: 1 amine or outer side, 2 acyl side, 3 side chain; linkers in the order of their positions; H or OH if unused. Non-standard residues stand in square brackets, D forms with d. No end group written: not given here. *: point of attachment. Asp‑al = Asp with the carboxyl reduced to aldehyde (3-amino-4-oxobutanoic acid), O=C[C@H](CC(=O)[*:3])N[*:1]; benzoxazol‑2‑yl ketone = Asp carboxyl replaced by 2-benzoxazolyl ketone, c1ccc2oc(*)nc2c1; Pro(4R-allyloxy) = 4(R)-allyloxyproline, C=CCO[C@@H]1C[C@@H](C(=O)[*:2])N([*:1])C1; X3 = (2,6-dichlorophenylmethyloxy)methyl ketone, Clc1cccc(Cl)c1COC*; X1 = 7‑methoxybenzoxazol‑2‑yl ketone, COc1cccc2nc(*)oc12; X2 = 4‑methoxybenzoxazol‑2‑yl ketone, COc1cccc2oc(*)nc12; X4 = (2-chlorobenzyloxy)methyl ketone, Clc1ccccc1COC*; Pro(4-benzyloxy) = 4-benzyloxyproline; Pro(4-phenoxy) = 4-phenoxyproline; Hyp = O=C(O)[C@@H]1C[C@@H](O)CN1; Cbz = O=C(OCc1ccccc1)*

Assay [1] has as its target interleukin-1β converting enzyme (ICE), as used in the enzyme assays (UniProt P29466). The experiment in a line: ICE enzyme inhibition, UV-visible substrate Suc-YVAD-pNA.
For assay [2] the target is unchanged. The experiment in a line: ICE enzyme inhibition, fluorescent substrate Ac-YVAD-AMC.
For assay [3], the target named is T1, interleukin-1β converting enzyme (ICE) in human peripheral blood mononuclear cells (human, UniProt P29466 1-404, limits assumed).
T1 sequence (looked up): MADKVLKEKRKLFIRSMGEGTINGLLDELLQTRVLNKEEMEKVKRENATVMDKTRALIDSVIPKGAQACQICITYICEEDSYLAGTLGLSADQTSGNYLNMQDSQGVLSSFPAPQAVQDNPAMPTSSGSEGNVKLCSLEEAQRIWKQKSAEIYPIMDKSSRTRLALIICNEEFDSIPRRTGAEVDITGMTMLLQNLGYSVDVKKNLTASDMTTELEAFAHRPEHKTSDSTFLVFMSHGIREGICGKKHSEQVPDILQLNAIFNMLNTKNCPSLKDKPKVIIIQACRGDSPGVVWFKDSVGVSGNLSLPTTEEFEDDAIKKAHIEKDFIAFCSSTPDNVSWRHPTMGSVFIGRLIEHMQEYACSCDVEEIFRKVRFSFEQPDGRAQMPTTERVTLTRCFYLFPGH
The experiment in a line: cell-based or functional assay.

Assay [4] concerns the target T1, interleukin-1β converting enzyme (ICE) …. The experiment in a line: cell-based or functional assay. The source holds these as a separate data set.
Assay [5] deals with T2, interleukin-1β converting enzyme (ICE), as used in the enzyme assays (UniProt P29466 120-297; P29466 317-404, limits assumed).
T2 construct: also called IL-1β Converting Enzyme
T2 sequence (looked up) 1: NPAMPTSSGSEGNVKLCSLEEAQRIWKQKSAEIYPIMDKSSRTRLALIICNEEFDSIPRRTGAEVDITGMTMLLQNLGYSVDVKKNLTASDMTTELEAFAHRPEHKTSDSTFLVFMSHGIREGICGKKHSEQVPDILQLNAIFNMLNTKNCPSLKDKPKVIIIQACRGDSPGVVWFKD
T2 sequence (looked up) 2: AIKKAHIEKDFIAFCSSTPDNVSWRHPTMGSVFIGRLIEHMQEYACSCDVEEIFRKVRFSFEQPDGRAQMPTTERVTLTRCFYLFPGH
Briefly: ICE enzyme inhibition, UV-visible substrate Suc-YVAD-pNA. The method, then:
Synthesis of analogous substrates is described by L. A. Reiter (Int. J. Peptide Protein Res. 43, 87–96 (1994)). […] Buffer, ICE and DMSO (if inhibitor is present) are added to the wells in the order listed. The components are left to incubate at room temperature for 15 minutes starting at the time that all components are present in all wells. The microtiter plate reader is set to incubate at 37° C. After the 15 minute incubation, substrate is added directly to the wells and the reaction is monitored by following the release of the chromophore (pNA) at 405–603 nm at 37° C. for 20 minutes. A linear fit of the data is performed and the rate is calculated in mOD/min. DMSO is only present during experiments involving inhibitors, buffer is used to make up the volume to 100 µl in the other experiments.

Assay [6] has as its target T2, interleukin-1β converting enzyme (ICE), …. The experiment in a line: ICE enzyme inhibition, fluorescent substrate Ac-YVAD-AMC. The method, then: This assay is run essentially according to Thornberry et al. (Nature 356: 768–774 (1992)), using substrate 17 referenced in that article. […] The following components are mixed:
Buffer and ICE are added to the wells. The components are left to incubate at 37° C for 15 minutes in a temperature-controlled wellplate. […] A linear fit of the data for each well is performed and a rate is determined in fluorescence units per second.

Assay [7] addresses T1, interleukin-1β converting enzyme (ICE) …. The experiment in a line: cell-based or functional assay. This is another data set of the same source.

“N-[2-(N-Acetyl-tyrosinyl-valinyl)-(S)-1,2,3,4-tetrahydroisoquinoline-3-carbonyl]-3-amino-oxobutanoic acid (peptide)”: in assay [1], the Ki (usually the dissociation constant of the complex between target and ligand, obtained from inhibition or displacement) worked out at 14 nM. This lies in the double-digit nanomolar range.
Consider “N-(N-Acetyl-tyrosinyl-valinyl-pipecolyl)-3-amino-4-oxobutanoic acid (peptide)”, for which the Ki in assay [1] amounted to 23 nM; in assay [2], 4.7 nM.

B1: (3S) N-(N-Benzyloxycarbonyl-(S)-valinyl-(S)-alaninyl)-3-amino-4-(2-benzoxazolyl)-4-oxobutanoate (peptide)
peptide: Cbz-Val-Ala-Asp-{benzoxazol‑2‑yl ketone}
SMILES: CC(C)[C@H](NC(=O)OCc1ccccc1)C(=O)N[C@@H](C)C(=O)N[C@@H](CC(=O)O)C(=O)c1nc2ccccc2o1
In assay [1], B1 had a Ki of 850 nM. In addition, in assay [3], the “Cell IC50 (µM): inhibitor concentration at which 50% of mature IL-1β is detected in the supernatant” value was found to be 4.1 µM.
As for Ac-YV[Pro(4R-allyloxy)][Asp‑al] (not fully specified (C-terminus), also called 85) [N-(N-Acetyl-tyrosinyl-valinyl-(4(R)-allyloxy prolinyl))-3(S)-amino-4-oxobutanoic acid], in assay [4], the “Cell IC50 (µM): inhibitor concentration at which 50% of mature IL-1β is detected in the supernatant” value stood at 9.8 µM. Moreover, the Ki in assay [5] amounted to 3.5 nM.
In assay [1], Cbz-Val-Ala-Asp-X3 (also: Asp-derived residue (R,S)) came in with an inhibition constant (Ki) of 100 nM. Further, the “Cell IC50 (µM): inhibitor concentration at which 50% of mature IL-1β is detected in the supernatant” value in assay [3] came to 3.3 µM.
Ac-Val-Pro-Asp-X1 (not fully specified (residues 2, 3)) registered a Ki in assay [1] of 175 nM. Also, the “Cell IC50 (µM): inhibitor concentration at which 50% of mature IL-1β is detected in the supernatant” value in assay [4] came out at 4 µM.
In the case of Ac-YV[Hyp][Asp‑al] (not fully specified (C-terminus)) [N-[N-Acetyl-tyrosinyl-valinyl-(4-hydroxyprolinyl)]-3-amino-4-oxobutanoic acid], the Ki stood at 3.9 nM in assay [6] and 12 nM in assay [5].
As for Ac-YV[Pro(4-benzyloxy)][Asp‑al] (not fully specified (C-terminus)) [N-[N-Acetyl-tyrosinyl-valinyl-(4-benzyloxy)prolinyl]-3-amino-4-oxobutanoic acid], the inhibition constant (Ki) came to 2 nM in assay [6] and 10 nM in assay [5].
Turning to Ac-YV[Pro(4-phenoxy)][Asp‑al] (not fully specified (C-terminus)) [N-(N-Acetyl-tyrosinyl-valinyl-(4-phenoxyprolinyl))-3-amino-4-oxobutanoic acid], the inhibition constant (Ki) was found to be 5.2 nM in assay [6] and 7.2 nM in assay [5]. In assay [7], the “Cell IC50 (µM): inhibitor concentration at which 50% of mature IL-1β is detected in the supernatant” value was found to be 2.6 µM.

B2: N-Acetyl-(S)-tyrosinyl-(S)-valinyl-(S)-alaninyl-3(S)-amino-5-(2-chlorobenzyloxy)-4-oxo-pentanoic acid (peptide)
peptide: Ac-YVAD-X4
SMILES: CC(=O)N[C@@H](Cc1ccc(O)cc1)C(=O)N[C@H](C(=O)N[C@@H](C)C(=O)N[C@@H](CC(=O)O)C(=O)COCc1ccccc1Cl)C(C)C
notes: also called 89
In assay [5], B2 showed an inhibitory constant (Ki) of 18 nM.

B3: (3S) N-(N-Acetyl-(S)-tyrosinyl-(S)-valinyl-(S)-alaninyl)-3-amino-4-(2-(7-methoxybenzoxazolyl))-4-oxobutanoate (peptide)
peptide: Ac-YVAD-X1
SMILES: COc1cccc2nc(C(=O)[C@H](CC(=O)O)NC(=O)[C@H](C)NC(=O)[C@@H](NC(=O)[C@H](Cc3ccc(O)cc3)NC(C)=O)C(C)C)oc12
notes: also called 69a
Turning to B3, the “Cell IC50 (µM): inhibitor concentration at which 50% of mature IL-1β is detected in the supernatant” value in assay [3] amounted to 0.735 µM. This molecule registered a Ki in assay [5] of 11 nM.

B4: (3S) t-Butyl N-(N-acetyl-(S)-tyrosinyl-(S)-valinyl-(S)-alaninyl)-3-amino-4-(2-(4-methoxybenzoxazolyl))-4-oxobutanoate (peptide)
peptide: Ac-YVAD-X2
SMILES: COc1cccc2oc(C(=O)[C@H](CC(=O)O)NC(=O)[C@H](C)NC(=O)[C@@H](NC(=O)[C@H](Cc3ccc(O)cc3)NC(C)=O)C(C)C)nc12
notes: The printed name begins with 't-Butyl', but the compound was made by the method for the acid 69a and its printed formula C31H37N5O10 is that of the free acid; also called 69b
As for B4, in assay [3], the “Cell IC50 (µM): inhibitor concentration at which 50% of mature IL-1β is detected in the supernatant” value was found to be 0.745 µM. The same molecule came in with a Ki in assay [5] of 50 nM.
Taken in the same sequence, the figures for Ac-YVAD-X3 (also: Asp-derived residue (R,S), also called 84b) were 0.5 µM and 19 nM.

Source of the values: US6420522 (VERTEX PHARMACEUTICALS, dated 2002).
